In this assay the target is SNAP-tagged murine µOR on HEK293 cells (murine, UniProt P42866, SNAP-Lumi4-Tb (terbium cryptate) on the SNAP tag). Description: AlphaScreen or HTRF.
Sequence of SNAP-tagged murine µOR on HEK293 cells (P42866 whole entry): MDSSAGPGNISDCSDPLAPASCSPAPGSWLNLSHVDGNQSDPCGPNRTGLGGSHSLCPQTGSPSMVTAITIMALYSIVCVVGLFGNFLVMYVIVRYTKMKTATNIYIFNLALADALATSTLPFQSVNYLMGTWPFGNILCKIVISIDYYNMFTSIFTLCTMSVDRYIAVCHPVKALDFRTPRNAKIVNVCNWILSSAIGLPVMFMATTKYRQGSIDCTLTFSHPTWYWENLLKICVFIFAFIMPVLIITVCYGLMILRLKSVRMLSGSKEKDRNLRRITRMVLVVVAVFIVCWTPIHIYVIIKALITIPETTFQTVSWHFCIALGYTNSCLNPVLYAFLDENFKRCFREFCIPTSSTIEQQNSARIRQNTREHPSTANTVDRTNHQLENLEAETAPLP

B1: mNbE (N45K, Q117K, Q120P)-6xHis (VHH)
VHH: QVQLVESGGGLVQAGGSLRLSCAASGSISSISTMGWYRQAPGKERELVAAITSGGSTNYADSVKGRFTISRDNAKNTVYLQMNSLKPEDTAVYYCNFKYYSGSYFYKSEYDYWGKGTPVTVSS
As for B1, the binding result is given as “binds”.

Source of the values: PMC11464722 (Nature Communications, 2024).
